# Measured values from article PMC7763088, “Impact of Different Lipid Ligands on the Stability and IgE-Binding Capacity of the Lentil Allergen Len c 3” (Biomolecules, 2020).
# Read-outs that look alike come from different tables or passages of the source.
# How the values were obtained:
# [1] = Circular dichroism spectroscopy of rLen c 3 (pH and heat stability, secondary structure); format: physicochemical; settings: for random (secondary structure estimation from Far-UV CD spectra) / turn (secondary structure estimation from Far-UV CD spectra) / α-helix (secondary structure estimation from Far-UV CD spectra) / β-sheet (secondary structure estimation from Far-UV CD spectra): lipid 1 mM where added
# Procedure: (§1) Circular dichroism spectra were recorded at different temperatures, using a J-810 spectropolarimeter (Jasco, Hachioji, Tokyo, Japan) in a 0.1 cm path length quartz cell (Hellma GmbH & Co. KG, Mullheim, Germany) in the 190–250 nm range, and 0.2, using solutions of rLen c 3 in 10 mM phosphate buffer, pH 7.4, or 150 mM sodium chloride, pH 2.5, simulated gastric fluid, at a concentration of 17 µM. Fatty acids or lysolipids were added at a final concentration of 1 mM. Each experiment was performed twice, independently.
# [2] = tested on: pepsin; test: In vitro gastric digestion (SDS-PAGE); format: in vitro ADME; settings: pepsin, pH 2.0, 2 h
# Procedure: Simulation of gastrointestinal digestion in vitro was performed as described in [15]. Briefly, gastric digestion was performed for 2 h, using 50 ng of pepsin (p) (Sigma) per 1 μg of rLen c 3 in 0.1 M HCl, pH 2.0 (final protein concentration 0.05 mM). For duodenal digestion, pH of the mixture resulting from gastric digestion was adjusted to 8.0 by addition of ammonium bicarbonate. The obtained mixture was incubated for 24 h at 37 °C with 2.5 ng of trypsin (t) (Promega, Madison, WI, USA) and 10 ng of α-chymotrypsin (ch) (Sigma) per 1 μg of the substrate. Degree of proteolysis was monitored by sodium dodecyl sulfate polyacrylamide gel electrophoresis (SDS-PAGE) under reducing conditions and reversed-phase high-performance liquid chromatography (RP-HPLC) on Luna C18 column (5 μm, 250 × 4.6 mm; Phenomenex, Torrance, CA, USA) at a flow rate of 0.5 mL/min, using a gradient of acetonitrile concentration from 5 to 65% for 45 min in 0.1% trifluoroacetic acid (TFA). Gel analysis was performed, using a densitometer. Electroblotting and subsequent N-terminal protein sequencing were performed as described. The protein was preheated at 100 °C for 30 min to study the effect of temperature on allergen stability. rLen c 3 was preloaded with various lipid ligands (LTP to lipid molar ratio 1:4) for 10 min, in order to investigate their effects on allergen resistance to proteolytic digest. […]
# [3] = tested on: trypsin and α-chymotrypsin; test: In vitro duodenal digestion after gastric digestion (SDS-PAGE densitometry); format: in vitro ADME
# Procedure: (§2) Simulation of gastrointestinal digestion in vitro was performed as described in [15]. Briefly, gastric digestion was performed for 2 h, using 50 ng of pepsin (p) (Sigma) per 1 μg of rLen c 3 in 0.1 M HCl, pH 2.0 (final protein concentration 0.05 mM). For duodenal digestion, pH of the mixture resulting from gastric digestion was adjusted to 8.0 by addition of ammonium bicarbonate. The obtained mixture was incubated for 24 h at 37 °C with 2.5 ng of trypsin (t) (Promega, Madison, WI, USA) and 10 ng of α-chymotrypsin (ch) (Sigma) per 1 μg of the substrate. Degree of proteolysis was monitored by sodium dodecyl sulfate polyacrylamide gel electrophoresis (SDS-PAGE) under reducing conditions and reversed-phase high-performance liquid chromatography (RP-HPLC) on Luna C18 column (5 μm, 250 × 4.6 mm; Phenomenex, Torrance, CA, USA) at a flow rate of 0.5 mL/min, using a gradient of acetonitrile concentration from 5 to 65% for 45 min in 0.1% trifluoroacetic acid (TFA). Gel analysis was performed, using a densitometer. Electroblotting and subsequent N-terminal protein sequencing were performed as described. The protein was preheated at 100 °C for 30 min to study the effect of temperature on allergen stability. rLen c 3 was preloaded with various lipid ligands (LTP to lipid molar ratio 1:4) for 10 min, in order to investigate their effects on allergen resistance to proteolytic digest. As a control of the influence of lipid ligands on the work of proteolytic enzymes, the same reactions were carried out, using bovine α-casein (Sigma) as a substrate. Some independent experiments were performed in each case.
# [4] = tested on: specific IgE in sera of allergic patients; test: ELISA of sIgE binding to intact, heated or digested rLen c 3; set-up: species or system human
# Procedure: Sera from allergic patients (n = 100) with food and pollen allergy were obtained from the Clinical Diagnostic Center of G.N. Gabrichevsky Research Institute for Epidemiology and Microbiology. The work with human sera was approved by the local ethical committees of this Institute (FS-99-01-009026, Moscow, Russia). The amount of specific IgE (sIgE) to allergen extracts in the patient sera was determined by using RIDA qLine Allergy Panel 1-4 (R-Biopharm, Pfungstadt, Germany). Screening of sera containing sIgE to peach Pru p 3 and Len c 3 was performed by ELISA. For that, plate wells (Corning Incorporated, Corning, NY, USA) were coated with recombinant allergen (0.5 μg/well) in 0.01 M phosphate buffered saline (PBS), pH 7.4, for 1 h, at 37 °C; saturated with 2% bovine serum albumin (SERVA, Heidelberg, Germany) in PBS buffer for 1 h, at 37 °C; and then incubated with the sera of allergic patients (1:4 dilution), for 2 h, at 37 °C. Specific IgE binding was detected by using peroxidase-conjugated anti-human IgE from goat (Sigma) (1:2000 dilution), and 3,3′,5,5′-tetramethylbenzidine (TMB) liquid substrate system for ELISA (Sigma). The enzymatic reaction was stopped after 30 min by 2 N H2SO4 and absorbance values were determined at 450 nm. Moreover, 0.01 M PBS with 0.05% Tween-20 was used as a washing solution on each step. For sIgE binding experiments with the intact or heated (at 100 °C for 30 min) or digested (gastric and subsequent duodenal digestion for 2 h) rLen c 3, patient sera containing sIgE were selected (Table S3). Intact and treated rLen c 3 samples were coated in wells of 96-well plates (0.5 μg/well), and ELISA was performed as described above. Sera samples from non-allergic individuals were used as a negative control.
# [5] = target: T1, rLen c 3 (Lens culinaris, UniProt A0AT29); test: TNS displacement lipid binding assay; set-up: species or system lentil; settings: for IC50: 25 °C, 4 μM TNS, 4 μM rLen c 3, read-out: IC50 (TNS displacement)
# T1 construct: with the formation of the large fragment 1–80 and the protein without C-terminal Phe93; His8-TrxL (octahistidine-thioredoxin carrier) (N, cleaved yes); made in house; host or cells: Escherichia coli BL-21 (DE3)
# T1 sequence (A0AT29 26-118): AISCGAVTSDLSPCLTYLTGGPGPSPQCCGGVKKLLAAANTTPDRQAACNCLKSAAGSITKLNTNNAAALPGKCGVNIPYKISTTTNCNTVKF
# Procedure: The ability of rLen c 3 to bind lipids was assayed by monitoring the displacement of the fluorescent probe TNS. Fluorescence intensity was measured at 25 °C with a F-2710 spectrofluorimeter (Hitachi, Tokyo, Japan), using a […] slit width for both excitation (λ = 320 nm) and emission (λ = 437 nm) and the measurement taken for no longer than 1.5–2 s. After equilibrating TNS (4 μM) in 10 mM phosphate buffer, pH 7.4, or 150 mM sodium chloride, pH 2.5, for 2 min with gentle mixing, the 2 mM of competing ligand was titrated into the 2 mL of 4 μM rLen c 3 solution in 1 μL aliquots. The resulting data were fitted by using a sigmoidal curve-fitting in GraphPad Prism from which the concentration able to displace 50% of the TNS (IC50) was calculated. The dependence of the ligand binding on temperature was performed at 20, 40, 60, 90, and 20 °C, after cooling down as previously described. Temperature was checked with a temperature probe in the cuvette. Each experiment was performed in triplicate, independently.
# [6] = target: T1, rLen c 3; test: Effect of lipid ligands on secondary structure and thermostability of rLen c 3 (CD spectroscopy); format: physicochemical, lentil; settings: pH 7.4, ligand 1 mM
# Procedure: as §1
# [7] = target: T1, rLen c 3; test: Effect of lipid ligands on gastrointestinal digestion of rLen c 3; format: in vitro ADME, lentil
# Procedure: as §2
# [8] = target: T1, rLen c 3; test: ELISA of IgE binding to rLen c 3 preincubated with lipid ligands; set-up: species or system lentil; settings: preincubation with 60 μM ligand, sera with 10 μM ligand; sera from 10 patients; p > 0.1
# Procedure: To study the effects of lipid ligands on IgE binding capacity of allergen, rLen c 3 was covalently bound to Nunc Immobilizer Amino surface plates (Thermo Scientific, Waltham, MA, USA), according to peptide coupling protocol. rLen c 3 solution (100 μg/mL) in 100 mM sodium carbonate, pH 9.6, was added to the wells; after that, the plates were incubated at 25 °C for 2 h. Then 10 mM ethanolamine at the same buffer was used for the plates post-coupling at 25 °C for 1 h. Pre-incubation with PBS or lipid ligand solutions in PBS at concentration of 60 μM was performed overnight at 4 °C. After that, the plates were incubated with selected sera in 1:4 dilution, overnight, at 4 °C, with the absence or presence of 10 μM lipid ligands, due to the reversibility of Len c 3-ligand complexes. Subsequent steps of ELISA were carried out as described above. This experiment was performed twice, independently.
# [9] = 20 °C end (after cooling down from 98.5 °C), pH 7.4
molecule,measurement,setting,value
"rLen c 3: recombinant lentil allergen Len c 3, a lipid transfer protein, overexpressed in Escherichia coli",random (secondary structure estimation from Far-UV CD spectra),[1]; [9],34.9%
same,turn (secondary structure estimation from Far-UV CD spectra),[1]; [9],21.8%
same,α-helix (secondary structure estimation from Far-UV CD spectra),[1]; [9],5.6%
same,β-sheet (secondary structure estimation from Far-UV CD spectra),[1]; [9],37.7%
same,random (secondary structure estimation from Far-UV CD spectra),"[1]; 20 °C, pH 7.4",30.3%
same,α-helix (secondary structure estimation from Far-UV CD spectra),"[1]; 20 °C, pH 7.4",28.4%
same,β-sheet (secondary structure estimation from Far-UV CD spectra),"[1]; 20 °C, pH 7.4",19.1%
same,Protein folding state on heating,"[1]; 98.5 °C, pH 7.4",almost completely unfolded
same,random (secondary structure estimation from Far-UV CD spectra),"[1]; 98.5 °C, pH 7.4",33.9%
same,turn (secondary structure estimation from Far-UV CD spectra),"[1]; 98.5 °C, pH 7.4",22.0%
same,α-helix (secondary structure estimation from Far-UV CD spectra),"[1]; 98.5 °C, pH 7.4",6.6%
same,β-sheet (secondary structure estimation from Far-UV CD spectra),"[1]; 98.5 °C, pH 7.4",37.4%
same,Recovery of CD spectrum after cooling down,"[1]; cooled down to 20 °C after 98.5 °C, pH 7.4",not recovered
same,CD spectrum at acidic pH mimicking gastric juice,"[1]; pH 2.5 vs pH 7.4, 20 °C",remains almost unchanged
same,Temperature required for allergen denaturation,"[1]; pH 7.4, also shown in ref 17",above 80 °C
same,Stability to gastric digestion,[2],remarkable stability
same,Intact protein cleaved (densitometric gel analysis),[3]; 30 min of duodenal digestion after 2 h gastric digestion,more than 65%
same,Intact protein cleaved (densitometric gel analysis),[3]; 2 h of duodenal digestion after 2 h gastric digestion,> 85%
same,rLen c 3 degradation,[3]; 24 h of duodenal digestion,100%
same,Effect of protein preheating on degradation,[3]; preheating at 100 °C for 30 min before digestion,slightly increased an efficiency of the allergen degradation
same,IgE-binding capacity after heating,"[4]; 100 °C for 30 min, vs intact rLen c 3, patient sera 1:4",significantly (p < 0.001) reduced
same,IgE-binding in rPru p 3 IgE+ sera,"[4]; all rPru p 3 IgE+ sera, compared with rPru p 3",lower values than for rPru p 3
same,IgE-binding capacity after proteolytic digestion,"[4]; gastric and subsequent duodenal digestion for 2 h, vs intact rLen c 3, patient sera 1:4",significantly (p < 0.001) reduced
"CCCCCCCCCCCCCCCC(=O)OC[C@@H](O)COP(=O)(O)OCC(O)CO (stereo partly drawn) [LPPG, lyso-palmitoyl phosphatidylglycerol]",IC50,"[5]; 10 mM phosphate buffer, pH 7.4",4.3 ± 0.2 µM
same,IC50,"[5]; 150 mM sodium chloride, pH 2.5",4.3 ± 0.03 µM
same,Change of rLen c 3 affinity for the ligand at acidic pH,[5]; pH 2.5 compared with pH 7.4,remained unchanged
same,Ability of rLen c 3 to bind the ligand after heating and cooling down,"[5]; pH 7.4, heated from 20 to 90 °C, then cooled down to 20 °C",almost completely restored
same,Recovery of rLen c 3 structure after cooling down in the presence of ligand,[6]; cooling down to 20 °C after 98.5 °C,complete recovery of the native conformation
same,Effect of ligand on rLen c 3 thermostability (resistance to thermal denaturation),[6]; heating up to 98.5 °C,most pronounced effect
same,Degradation of rLen c 3 in the presence of ligand,"[7]; 24 h of duodenal digestion, LTP to lipid molar ratio 1:4",~ 55%
same,Effect of protein preheating before digestion in the presence of ligand on rate of allergen degradation,"[7]; after 4 and 24 h, effect more pronounced with LPPC",slightly increased
same,Effect of ligand on rLen c 3 degradation rate (proteolytic digestion),"[7]; gastric then duodenal digestion, LTP to lipid molar ratio 1:4",more pronounced
same,Effect of ligand on IgE binding capacity of rLen c 3,[8],small increase
